# Measured values: the RNAGym collection of RNA variant scans (doi:10.1073/pnas.2313332121)
# Variants at the floor of the assay were thinned out.
# B1: TPR 5TU (parent)
# chain: GGAUCUUCUCGAUCUAACAAAAAAGACAAAUCUGCCACAAAGCUUGAGAGCAUCUUCGGAUGCAGAGGCGGCAGCCUUCGGUGGCGCGAUAGCGCCAACGUUCUCAACUAUGACACGCAAAACGCGUGCUCCGUUGAAUGGAGUUUAUCAUG
# Variants of: B1
# Assay: polymerase ribozyme fitness, log enrichment relative to wild type (log ratio); higher = more active; in vitro selection for triplet polymerase activity
# In short: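 Both subunits of a heterodimeric triplet polymerase ribozyme were given their own mutant library, built by PCR and transcribed. Each library was annealed with a biotinylated primer, the partner subunit and triplets, incubated frozen at −7 °C, and its extended constructs gel-excised, captured on streptavidin beads and amplified by RT-PCR, all in one round done in triplicate. Fitness is the logarithm of genotype enrichment relative to wild-type enrichment, with replicates averaged by inverse-variance weighting. That logarithm is base 2, and Illumina-sequenced genotypes needed ≥10 input reads and ≥1 read per output.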
row,Variant,polymerase ribozyme fitness (log ratio)
1,C79G C87G C114G,≤ -4.2
2,G81A G84A,-0.338
3,U82G C105U,1.06
4,G81C C93G,-3.69
5,G81C C93A,-2.57
6,G81U C125A,-0.8
7,C79G A122U,-3.58
8,G81A C118G,-1.67
9,G81C C85U A97G U109G,-0.959
10,C79A C93U A119G G133C,≤ -4.2
11,U82G A115U,-1.61
12,C79U,-1.47
13,C79G,-3.75
14,C79A,-4.12
15,U78G C79A C108U,≤ -4.2
16,G81A G92C C99U G124C G133U,≤ -4.2
17,C79G G124A,-3.82
18,U82A C108U,-2.39
19,G80C G81C C96A U134A,≤ -4.2
20,C79U G94C,-3.64
21,C79A C93A,-4.12
22,U82C C131G,-2.45
23,G81A A97G A115G,-0.993
24,U78G G117C,≤ -4.2

row,Variant,polymerase ribozyme fitness (log ratio)
1,U78G C87G G92U A97C,≤ -4.2
2,U82C A89U C96G G100A A106U C114U A137C,≤ -4.2
3,C79U U102C,≤ -4.2
4,G81U C96U A107U U145C,-3.1
5,G81C G112A A137U U148A,≤ -4.2
6,U82C A89C C96U U101G A115C,-1.01
7,G80A C93G A97G A115C,-3.64
8,U82C C93G,-3.99
9,G83A A115G G136A U144C,-3.84
10,U78C G83C G126A,-0.883
11,U77C G81A G86U G100A G133U,≤ -4.2
12,G80A U82G,0.0436
13,U78A C103G U134A,≤ -4.2
14,G80U G94A C96A U101A C149A,≤ -4.2
15,G83A A119C A120U C149U,-1.37
16,G80A C85A A138G,-3.67
17,C79U G143U,-4.12
18,U82A G86C,-2.69
19,U82G A106U C118U,-0.65
20,G81A A120G U148C,-2.99
21,G80A C85U C118A,-0.52
22,G80U C93G,-2.97
23,C79A G88A G133U G140A,≤ -4.2
24,U82A C93U A110G,-4.09

row,Variant,polymerase ribozyme fitness (log ratio)
1,U78G U148C,-4.15
2,U82G G92C A106G C116U U135C A150G,≤ -4.2
3,U82G C95U U102G,-3.59
4,U82G G88C C93U C95G,≤ -4.2
5,U82A C105U,0.242
6,G81A U104G C105A G136C U146C,≤ -4.2
7,U82A A107C,-3.72
8,G81C G141A,-1.94
9,G81C C93G A113C C116U G117A C129A,≤ -4.2
10,U82G C93U G141A,-0.284
11,C79G C87U U144G,-4.04
12,U77A A91G G94A,≤ -4.2
13,U82G G92C,-1.23
14,U77G C87U G88A G140C A142G,≤ -4.2
15,G80A U82G C123A G152U,-4.06
16,G81C G117C G143U,-4.1
17,C79U G80C C85U C93U,≤ -4.2
18,G80U G86U U111C,≤ -4.2
19,G81A A91U U101G C103A,≤ -4.2
20,U78G G86C U102G C108U A119U G140U,≤ -4.2
21,U77C G92C U139C A150U,≤ -4.2
22,G81U G84C C118G,-3.16
23,G83A C87U A106C C125G G152A,-3.25
24,U82A G88A A115U A121U,≤ -4.2

row,Variant,polymerase ribozyme fitness (log ratio)
1,C79G C87U,-3.7
2,U78A C105U A115U,≤ -4.2
3,C79U C96U,-3.43
4,U77C G143U,-4.09
5,U77A C132U,≤ -4.2
6,G83A C93U A121U,-2.08
7,C79A U144A A147C,≤ -4.2
8,U77A A113U,≤ -4.2
9,G81U G84C,-3.22
10,U82G A91U C114A A119U A121C G133C,≤ -4.2
11,G81C C85A A142G,-1.69
12,G80A C99G G124A,-0.389
13,G80C C87A A89C A97G U102C A137G A138G U151A,≤ -4.2
14,G80C G88C C103A A122U A138G,≤ -4.2
15,G80A G94C C125A G143A,≤ -4.2
16,C76U U104G A106U G128U U151G,≤ -4.2
17,U78G G126U,≤ -4.2
18,U82A C85G,-3.05
19,G81C A107U,-3.29
20,U82G G133C G140A,-3.39
21,G80A G83C,-3.01
22,U82G A98G,0.302
23,G80U G86U G100A,≤ -4.2
24,G81U A98U C116A,0.542

row,Variant,polymerase ribozyme fitness (log ratio)
1,G81A C96A A98C,-0.656
2,G80C A113G U134A,≤ -4.2
3,G80C C85A G94C C132U G141U U148C,≤ -4.2
4,G81C C87U G100C G117A G126C,≤ -4.2
5,U82G A142C,-0.83
6,G80A A91G A122U,-2.08
7,G80A C105U,0.692
8,G81A A147U,0.732
9,U77A G84A C85U,≤ -4.2
10,G80U A119C C123A,-1.18
11,G80C U82G C87U C99G,0.273
12,U78G C87A,≤ -4.2
13,U78A C87U A91G A98C A120C U130G G141A,≤ -4.2
14,U82A C96A A110G A137G,-3.99
15,C79A G141C,-3.95
16,U82G A89C A98G A142C,-1.56
17,G83A A121G U145G U148G,≤ -4.2
18,U82G C93U,-1.51
19,U78A C93A G94U G140A G143A,≤ -4.2
20,C79G C96U,-3.8
21,U78A G83U,≤ -4.2
22,G80C A115U,≤ -4.2
23,U77C C114U,≤ -4.2
24,G81A C93A,-2.37

row,Variant,polymerase ribozyme fitness (log ratio)
1,G81U C85G,-1.76
2,C79G G81U C95U A107U C108U,≤ -4.2
3,G80A A97G,-1.88
4,U82G A107U,-2.6
5,U77A C96G G141U,≤ -4.2
6,G81C A137U U139G U144A,-3.35
7,U82C C95U,-1.92
8,G80C G81U,0.0733
9,C79A U90A G133U G143C,≤ -4.2
10,U82G C85A A89G G133A A142C,≤ -4.2
11,G81U A98G,-0.549
12,G83A C93U A107G,≤ -4.2
13,U82A G83A C99U G117A U144A,-2.53
14,G80A A113C U145A,-3.89
15,G80C G128C,-3.87
16,U82C U90G,≤ -4.2
17,C79U C87A C96U A98C G141C,≤ -4.2
18,G80A C87U,-0.519
19,G81A C95A C103A,-2.93
20,U82G G92C A113U,-3
21,G81A C87U U146G,-3.41
22,U82A C95U,-0.587
23,G80C C85U,-3.96
24,U82G C95G,-1.65

row,Variant,polymerase ribozyme fitness (log ratio)
1,G83A A89G C116U,-1.69
2,U82A G83A A98G U127C,-3.36
3,U82C U101A,0.112
4,C79U G100A A115C,-1.13
5,G80A G92U A97G,-0.375
6,G81C G117U,0.139
7,G81U U90C C99A A142G,≤ -4.2
8,U82A A106C,-0.884
9,U82A A106U,-1.16
10,G83A C96U,-0.419
11,U82G C85G G92C C114A,≤ -4.2
12,G81C G88A A107C C125A C131U,≤ -4.2
13,C79G C85U,-4.04
14,G80A C85G C116G,-2.05
15,C79U G141A,-2.05
16,G80C C87G C103G G143C,≤ -4.2
17,G81C A89C A98U A107U U144C,≤ -4.2
18,G81A C95A A147C,0.16
19,C79G C85A C114U,≤ -4.2
20,C79U G83A A107G A110G U144G,≤ -4.2
21,U78C U82G U102G,-3.57
22,U77A G84A C85U C129A,≤ -4.2
23,U77C U111A C131A,≤ -4.2
